Earlier results on 2 substances are cited in article PMC4426885.

Data set [1] concerns the target vinculin (Homo sapiens) (UniProt P18206).
Data set [2] addresses vinculin D1 (Homo sapiens) (UniProt P18206).
The target of data set [3] is vinculin tail (Homo sapiens) (UniProt P18206).

“alpha-actinin peptide vinculin-binding site (from UniProt P12814)”: the equilibrium dissociation constant (Kd) in data set [1] and in data set [2] was 2 nM in each case.
On to vinculin head (from UniProt P18206), for which the Kd in data set [3] is less than 1 nM.
